The supplement of paper PMC12764529
± gives the half width of the 95% confidence interval.

How the values were obtained:
[1] = folding stability dG unfold (combined trypsin and chymotrypsin); higher = more stable
How it was run: (§1)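 Designed mini-proteins with no cysteine and under 80 residues were kept only if AlphaFold2 dimer inter-PAE was above 15. In a PA-tagged cDNA display construct, they were digested with trypsin and chymotrypsin and then sequenced. K50 was inferred by Bayesian fitting of counts, and unfolding free energy was derived per protease or combined against a sequence-predicted unfolded-state K50 and a shared folded-state K50.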

[2] = folding stability dG unfold from trypsin proteolysis; higher = more stable
How it was run: as §1

[3] = folding stability dG unfold from chymotrypsin proteolysis; higher = more stable
How it was run: as §1

Sequence	folding stability dG unfold [1] [kcal/mol]	folding stability dG unfold [2] [kcal/mol]	folding stability dG unfold [3] [kcal/mol]
SAGGSIPADTVATLTLPDRDLAVRVELVDGTPRYLVTGPDGTPVGTLTPEEFAAFVAALPADARLDLRSAGG [r13_657_JUSTAS]	1.15 ± 0.068	0.7 ± 0.032	1.32 ± 0.081
SAMVIIRVENKDGKTIEIAIPVRNEDGKLTKEELEELAKRLAEELAEELGLEDVKVEVEVRPLSEEELKSAG [r14_378_TrROS_Hall]	2.35 ± 0.17	1.64 ± 0.091	2.68 ± 0.081
SAGGSAGGSAGGGMTVEESVFLDPSGTRITVTTRVFDDGTVVTETEVTPLPPTPNPALASAGGSAGGSAGGS [r10_878_JUSTAS]	1.11 ± 0.15	1.2 ± 0.035	1.08 ± 0.066
KTITIVVKVPSLEEVEALAAELAKELNLPPGAKVEVKVEYDEETGYVVVTVTVTNPNGEKIEIKIVVELPDS [r1_84_TrROS_Hall]	3.08 ± 0.22	1.86 ± 0.1	3.72 ± 0.38
SPKIKIVSVSRTAGGALVALLELEDRPITLYRPLALPYILASAEIPGTNEVKTILAPSSISPEEIAKLLGSA [r9_522_TrMRF]	1.75 ± 0.089	1.59 ± 0.037	1.75 ± 0.09
SAGGSAGGSKKKNKPAPPVLVVKVEIVKIELSDEELEAIKKNKEKIKEIYLIKIEVTLVEPEESAGGSAGGS [r12_196_TrROS_Hall]	1.94 ± 0.14	1.17 ± 0.11	2.18 ± 0.062
SAGTVTIGIWIPADDIEQIKELIRSIAEEHGWEVKVDKIEPNPDGQYFVTVTVENPENGKEIKITIWIPSAG [r5_41_TrROS]	3.25 ± 0.11	2.98 ± 0.056	3.39 ± 0.044
SAGSVETFEDPEVGRVVIVPLPGGEVLTIELPPDSITMTLTSPKGGESVTITKKMKPGEEEELIKELASSAG [r5_820_JUSTAS]	-0.358 ± 0.3	-0.521 ± 0.47	-0.603 ± 0.45
SAGGSAGGSAMTTVTSTTEIPPSALTVKTSVSTAPDGSLVETTTVVLPDGSVVTTTLSTVASAGGSAGGSAG [r3_7_JUSTAS]	1.11 ± 0.047	0.974 ± 0.035	1.19 ± 0.018
SAGGSAGGSEYRIELELFRTPEGGLVVPVRIYPPDGGRFEGPASLEELVERFGFSFPPLLELLSAGGSAGGS [r20_235_TrMRF]	2.15 ± 0.092	1.58 ± 0.035	2.54 ± 0.12
SMSEVVEESEFNGEKVITIKVTLPDGTPVTVTITLSPEGEGTVTTVPPSSSTSTTTTVPVSQVDEVLEALSA [r9_91_JUSTAS]	1.61 ± 0.074	1.95 ± 0.061	1.4 ± 0.031
SAGGSAGGSAKKPVTGTIILKYPGTPEDALAKAKEIAKELESRGYSVSAEFLPNGYIKITLPSAGGSAGGSA [r18_262_TrMRF]	1.73 ± 0.098	1.48 ± 0.049	1.78 ± 0.051
SAGGSASVVLPNATVEELKEAVEKGAKEIVVVSPDPARAATIKAEIEKLHDTPVKVLTPEEAAALESAGGSA [r15_243_JUSTAS]	0.907 ± 0.055	-0.205 ± 0.037	1.32 ± 0.035
SAGGSMIVKVTVRVDGKEYERTVEVESLEEALELELPELPEGAEVRIEVVDPETGELIETVTLRVPSAGGSA [r2_390_TrROS_Hall]	2.46 ± 0.15	2.3 ± 0.13	2.56 ± 0.052
SAGGSAGGSAGKIRDPNGNPFQIKDVEVEPPGPGDPYISIEYPDNGEEFTLPPEDAEDLFSAGGSAGGSAGG [r17_517_TrROS]	1.64 ± 0.27	0.95 ± 0.038	2.13 ± 0.052
SAPKNYRFKIYFPNGVEFTIPPGWDLEIEEFDPEDGVIRIKMTRYDKDDGKPVEKHDFPFPFRILEPDPSAG [r14_927_TrROS]	1.89 ± 0.25	1.73 ± 0.06	1.84 ± 0.23
SAGGSAGGSAFTIHDLKLNKVEVHPDGTVTYHLEVTLPSGEKLKVVVLVDPRKPSLATFYFSSAGGSAGGSA [r18_97_TrMRF]	2.94 ± 0.13	2.31 ± 0.2	3.31 ± 0.057
SAGGSAGGWPLMVEYTPPGDGKTQTYPIPIKGPLSEIKDQIKENMPPGFREVEISPANIEKILKSAGGSAGG [r6_889_TrROS]	< -1	-0.76 ± 0.39	-0.952 ± 0.5
SAGGSAGGSKKKKVIEIKISEEELKKLGLTKEEIAKKLAEKFPNIKKNVRIEKNKDGTLKIYVSAGGSAGGS [r12_50_TrROS_Hall]	1.18 ± 0.31	1.22 ± 0.072	1.27 ± 0.092
SAGGSMIEVERDPNDPNRYRARLPVIEENPPEPKLVYVDVYVDPENGLVYARAVTEDGGEAEFRFESAGGSA [r2_428_TrMRF]	0.786 ± 0.17	0.448 ± 0.12	1.03 ± 0.16
SAGGSASVSDVTTTTVTVTVEVTEDPATGLQRLTATHPDLSFERLVPAGTIPADTTVTLDVTVTTGSAGGSA [r15_190_JUSTAS]	0.322 ± 0.046	0.0934 ± 0.028	0.452 ± 0.014

Sequence	folding stability dG unfold [1] [kcal/mol]	folding stability dG unfold [2] [kcal/mol]	folding stability dG unfold [3] [kcal/mol]
SAGGGMGRIPLYGEERVEEIAAEPDVVSVEEDPETGRTYVYFERPDGYYSFTRDNETGEITEKTPLPSAGGS [r8_251_JUSTAS]	-0.237 ± 0.21	-0.462 ± 0.23	-0.523 ± 0.5
SAGGSASTYEPEVYTFTGKNKKIKVIVVKPKDNPTAKIIVYDENGNVLATIEFPAENVEKALKELASAGGSA [r15_940_TrMRF]	2.1 ± 0.083	2.02 ± 0.029	2.12 ± 0.064
SAGGSAGGSAEKPPPPVVTLRVRVVVEVDGKLYVATAEVRLVDGKLEIRVRIEEVPPGAPVSAGGSAGGSAG [r3_49_TrROS_Hall]	4.34 ± 0.17	3.7 ± 0.12	4.59 ± 0.22
SMEITLLSTDPTPGGMTTALWETPNRKVTIFKPPSENYYIVTVEIPGTGKTKTLRFPKNVSPEEIVKKLGSA [r9_522_JUSTAS]	1.78 ± 0.074	1.88 ± 0.034	1.55 ± 0.091
SKEVKITIEVKEVNGKLYVVVKVEVNGKEETLVFKSLEEAKNAIAKKLGLPKEKIKIKKVEVYKVSKKDLSA [r9_909_TrROS_Hall]	1.07 ± 0.24	0.964 ± 0.16	0.869 ± 0.21
SAGGSAGGMKYVVTVELPETGTTRTLTIPDNYTGEENVKKAVEEEAKKLGYSISKIEITKINDKSAGGSAGG [r6_718_JUSTAS]	0.536 ± 0.12	0.367 ± 0.086	0.654 ± 0.14
SAGGSAGGSAGTIKVNGKTVTITKNKKTGKYTITVTLKNGEKKTFVFPSKEDVEEALKALSAGGSAGGSAGG [r11_238_TrROS_Hall]	3.94 ± 0.13	3.27 ± 0.11	4.14 ± 0.08
SAGGMIELTIVVKTKEEAEKAAEELARKLAEELGVEVTVTSVEVEEVEDPETGETYLVVRVRIEVKPSAGGS [r8_171_TrROS_Hall]	4.53 ± 0.23	4.75 ± 0.27	4.12 ± 0.11
SAGGSAGGSAGSKKKRVITIWIPPNQSIEEAKNFMDEGFPIKEIDVQTRPDGHMMVTITLSAGGSAGGSAGG [r11_97_TrROS]	1.21 ± 0.14	1.56 ± 0.061	1.05 ± 0.14
SAGGSAMVVIRTTKPGGKVEVLAVNPEDGSKTVKTFSSSTSPKEVFEEVNKEFGGEVKVEKVELKASAGGSA [r15_544_TrMRF]	-0.512 ± 0.18	-0.439 ± 0.18	-0.912 ± 0.58
SAGGSAGGIKEILKEARENPENAESVTIRIPMEVPVTRYDPDNGEPETHPHPVPGEITIPPDDLSAGGSAGG [r6_560_TrROS]	0.889 ± 0.051	0.435 ± 0.019	1.16 ± 0.043
SAGGSAGGSAGITIWFPYDNIPEILEEAQKNGMEIKSVERVPDGWYLIKMPGKPIEIHIWSAGGSAGGSAGG [r17_379_TrROS]	1.33 ± 0.07	0.94 ± 0.032	1.55 ± 0.06
SNYLMIRIKEIDPNNPNKIKIEDIHPMPDNGNVQINIEHPGQEIYVMFNSADDAEEFINTLLKNYGLKPESA [r9_258_TrROS]	1.33 ± 0.098	0.925 ± 0.053	1.6 ± 0.11
SDMKIRIDDIDIQPLDEDGQPITINYKIEFGGQPVYFQIEIWVKPDGPVVIKIDIYNPDNGKPFEWTFPISA [r9_241_TrROS]	2.48 ± 0.23	2.13 ± 0.09	2.83 ± 0.08
SAGGSAGGSAGMLKKSPSPSIITVKIKPPDSDEVKTINIPPDKPEEVEKLREKGLEIEVLSAGGSAGGSAGG [r11_1006_JUSTAS]	-0.211 ± 0.26	-0.459 ± 0.35	-0.178 ± 0.37
SMKIPGMSAKEKLRKAIEALLEEAEKKGIKEITIKIYNKKTKKPIKEIKFKSKEELLKKIEEGDEVEIEFSA [r9_718_TrROS_Hall]	1.83 ± 0.13	2.1 ± 0.045	1.71 ± 0.061
SAGGSAGGSELPVESIETETYEDPSTGVKTVREKYPGGYVVTKTLYVPPDGPPIELPVEVRPESAGGSAGGS [r12_111_JUSTAS]	0.425 ± 0.23	-0.0484 ± 0.17	0.63 ± 0.083
SAGGKVKIVKIEIEEVDGKLKIRIVVEVDTPEDLEALKKAGVKKLKVEKRRLPNGRLLVVIEVEVEVKSAGG [r13_506_TrROS_Hall]	3.42 ± 0.062	2.46 ± 0.077	3.86 ± 0.074
SAGMKPIVELLKKEPNPKVILVEVFPTGGEAKIVVKDKVYVFPVKPGPGRRVLVVDPDGKILEVKPFPVSAG [r5_329_TrMRF]	0.708 ± 0.12	0.596 ± 0.15	0.709 ± 0.14
SAGGSAGGSAGGDLVITEVRVEFDPKDGTLRVTARFELPNTGETVEVTLEFEIPYPDGASAGGSAGGSAGGS [r10_296_TrMRF]	2.85 ± 0.32	2.99 ± 0.35	2.86 ± 0.15
SAGGMITATFTIDLGAGPVTFTFDITDIETALEKIKEYLKSQGIDAKLVSVSVDPANGTVPMKLSVPPSAGG [r13_567_JUSTAS]	1.56 ± 0.12	1.58 ± 0.043	1.46 ± 0.14
